Test results: patent US20200062863A1 (CSL BEHRING, published 2020)

Columns and labels:
Assay in all cases: Western blot of culture supernatant (non-reducing SDS-PAGE) probed with 3F7 mAb, anti-human IgG-FITC
T538A = molecular target: T1, T538A
T1 construct: also called Mu-FXII T538A mutant with C-terminal 8xHis-tag; mutant m)
T1 single chain: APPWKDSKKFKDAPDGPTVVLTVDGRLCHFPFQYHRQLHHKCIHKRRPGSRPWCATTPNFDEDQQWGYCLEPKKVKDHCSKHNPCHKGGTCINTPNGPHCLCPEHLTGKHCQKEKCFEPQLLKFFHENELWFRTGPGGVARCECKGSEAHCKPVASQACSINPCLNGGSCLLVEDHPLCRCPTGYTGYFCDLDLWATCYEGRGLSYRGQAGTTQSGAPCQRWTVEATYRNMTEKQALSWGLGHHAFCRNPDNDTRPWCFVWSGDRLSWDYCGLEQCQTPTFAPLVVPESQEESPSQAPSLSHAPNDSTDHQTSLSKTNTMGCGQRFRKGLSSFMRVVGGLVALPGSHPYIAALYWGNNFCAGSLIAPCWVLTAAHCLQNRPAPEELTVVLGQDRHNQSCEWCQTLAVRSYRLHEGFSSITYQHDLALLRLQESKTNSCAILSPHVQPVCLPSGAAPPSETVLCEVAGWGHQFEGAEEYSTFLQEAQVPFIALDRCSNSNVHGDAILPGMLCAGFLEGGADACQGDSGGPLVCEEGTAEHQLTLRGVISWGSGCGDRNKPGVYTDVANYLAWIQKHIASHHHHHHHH
Procedure: (§1) Proteins were then transferred electrophoretically onto nitrocellulose filters and blocked for 1 hour in 5% Milk powder in Tris-buffered saline with 0.05% Tween-20 (TTBS). Filters were then incubated for 1 hour with either 3F7 mAb or an anti-His mAb 3H3 (both at […] in TTBS with 5% Milk powder), washed thoroughly with TTBS, then incubated for a further hour with anti-human IgG-FITC or anti-mouse IgG-FITC, respectively (Millipore, USA; both at 0.25 mg/ml in TTBS with 5% Milk powder). Following further washing of membranes in TTBS, Ab-FITC bound proteins were visualized using a Typhoon variable mode analyzer (GE Healthcare, USA).

R427H = molecular target: T2, R427H
T2 construct: also called Mu-FXII R427H mutant with C-terminal 8xHis-tag; mutant e)
T2 single chain: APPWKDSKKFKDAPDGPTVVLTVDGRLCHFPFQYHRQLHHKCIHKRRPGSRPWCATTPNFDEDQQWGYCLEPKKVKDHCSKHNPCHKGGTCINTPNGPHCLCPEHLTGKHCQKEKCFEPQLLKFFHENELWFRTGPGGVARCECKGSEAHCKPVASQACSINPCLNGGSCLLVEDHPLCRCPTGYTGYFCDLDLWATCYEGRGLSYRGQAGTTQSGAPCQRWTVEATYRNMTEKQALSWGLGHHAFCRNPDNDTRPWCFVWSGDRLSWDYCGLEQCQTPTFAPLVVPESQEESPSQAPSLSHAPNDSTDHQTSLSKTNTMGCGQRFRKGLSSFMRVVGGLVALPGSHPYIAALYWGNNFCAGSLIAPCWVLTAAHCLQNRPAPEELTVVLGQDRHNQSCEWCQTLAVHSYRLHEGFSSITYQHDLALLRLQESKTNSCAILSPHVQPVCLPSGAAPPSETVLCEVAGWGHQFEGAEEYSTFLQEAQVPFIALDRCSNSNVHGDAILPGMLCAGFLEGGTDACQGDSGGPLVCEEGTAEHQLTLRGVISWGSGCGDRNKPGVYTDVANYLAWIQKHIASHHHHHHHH
Procedure: as §1

A385D = molecular target: T3, A385D
T3 construct: also called Mu-FXII A385D mutant with C-terminal 8xHis-tag; mutant b)
T3 single chain: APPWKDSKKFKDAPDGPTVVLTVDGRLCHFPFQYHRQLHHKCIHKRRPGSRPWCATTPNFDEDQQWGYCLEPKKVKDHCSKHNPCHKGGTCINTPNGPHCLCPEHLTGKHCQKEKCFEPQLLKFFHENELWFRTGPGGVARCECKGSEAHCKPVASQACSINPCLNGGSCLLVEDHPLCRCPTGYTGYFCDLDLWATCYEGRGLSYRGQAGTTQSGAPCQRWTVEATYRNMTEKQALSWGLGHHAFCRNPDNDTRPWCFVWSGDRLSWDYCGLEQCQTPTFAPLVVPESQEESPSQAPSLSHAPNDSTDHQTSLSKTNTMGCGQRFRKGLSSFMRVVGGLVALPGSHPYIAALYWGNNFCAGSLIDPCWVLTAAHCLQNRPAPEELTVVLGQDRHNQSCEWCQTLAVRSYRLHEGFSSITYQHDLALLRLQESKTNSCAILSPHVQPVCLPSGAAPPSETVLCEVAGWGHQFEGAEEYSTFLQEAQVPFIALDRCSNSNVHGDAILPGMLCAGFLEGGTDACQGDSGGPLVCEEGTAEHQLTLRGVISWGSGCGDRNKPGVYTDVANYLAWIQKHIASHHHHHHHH
Procedure: as §1

S452G = molecular target: T4, S452G
T4 construct: also called Mu-FXII S452G mutant with C-terminal 8xHis-tag; mutant i)
T4 single chain: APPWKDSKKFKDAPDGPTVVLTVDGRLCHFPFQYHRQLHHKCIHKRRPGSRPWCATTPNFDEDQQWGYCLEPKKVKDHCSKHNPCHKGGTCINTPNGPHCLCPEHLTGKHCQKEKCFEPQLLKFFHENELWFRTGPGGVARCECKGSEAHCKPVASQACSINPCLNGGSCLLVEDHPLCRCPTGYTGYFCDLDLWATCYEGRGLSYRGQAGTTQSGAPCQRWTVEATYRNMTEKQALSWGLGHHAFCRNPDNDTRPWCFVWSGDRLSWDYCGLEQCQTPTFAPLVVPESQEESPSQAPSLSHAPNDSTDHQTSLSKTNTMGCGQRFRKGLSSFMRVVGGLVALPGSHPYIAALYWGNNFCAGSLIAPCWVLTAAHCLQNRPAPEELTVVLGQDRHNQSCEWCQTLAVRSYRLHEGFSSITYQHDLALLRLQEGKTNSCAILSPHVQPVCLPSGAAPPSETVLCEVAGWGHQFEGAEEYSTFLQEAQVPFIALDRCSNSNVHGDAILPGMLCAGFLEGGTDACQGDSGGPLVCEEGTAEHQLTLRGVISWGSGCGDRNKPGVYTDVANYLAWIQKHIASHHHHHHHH
Procedure: as §1

Measured: binding result

B1: monoclonal antibody 3F7 (fully human IgG4/lambda) (antibody, V domains shown)
VH: EVQLLESGGGLVQPGGSLRLSCAASGFTFSKYIMQWVRQAPGKGLEWVSGIRPSGGTTVYADSVKGRFTISRDNSKNTLYLQMNSLRAEDTAVYYCARALPRSGYLISPHYYYYALDVWGQGTTVTVSS
VL: QSELTQPPSASGTPGQRVTISCSGSSSNIGRNYVYWYQQVPGTAPKLLIYSNNQRPSGVPDRFSGSKSGTSASLVISGLRSEDEADYYCAAWDASLRGVFGGGTKLTVLG
notes: also called 3F7 mAb; MAb 3F7
binds: all assays above
